Experimental data taken from US20210130420A1, “RECOMBINANT BINDING PROTEINS TARGETING HER2 AND SERUM ALBUMIN, AND THEIR USES” (Molecular Partners AG, priority 2016, published 2021).

Test: Pharmacokinetic analysis in mouse
Format: in vivo
Method: The measurements shown in this example are the result of a half-life engineering effort as described in Example 11. Protein #21-His and Protein #23-His were expressed and purified as described in Example 1. The pharmacokinetic properties of the His-tagged proteins were assessed in mouse as described elsewhere (Zahnd, C., Kawe, M., Stumpp, M. T., de Pasquale, C., Tamaskovic, R., Nagy-Davidescu, G., Dreier, B., Schibli, R., Binz, H. K., Waibel, R., Plückthun, A., Cancer Res. 70, 1595-1605, 2010). […] Having SEQ ID NO: 16 present in the recombinant binding protein thus appears to be more favorable than having SEQ ID NO: 18 present.
Polypeptide linkers that link protein domains are well-known to the person skilled in the art. Gly-Ser-rich linkers are well-known from single-chain Fv antibody fragments, where they have proven to be most appropriate to link the two Fv polypeptide chains. […] Protein #26-His and Protein #27-His, were expressed and purified as described in Example 1. Pharmacokinetic analyses in mouse were performed as described in Example 8.
For the studies in this example Protein #21-His, Protein #24-His, Protein #28-His, Protein #29-His, and Protein #30-His were prepared according to Example 1. Protein #28-His was additionally PEGylated using a 40 kDa PEG moiety (NOF Sunbright GL2-400MA) by maleimid coupling of the PEG-moiety onto the free C-terminal cysteine of Protein #28-His, followed by purification to homogeneity using standard purification methods, procedures well known to the person skilled in the art. Pharmacokinetic analyses in mouse or cynomolgus monkey were performed as described in Examples 8 and 9.

B1: Protein #27-His: SEQ ID NO: 27 with a His-tag (SEQ ID NO: 1) fused to its N terminus (protein)
chain: MRGSHHHHHHGSDLGKKLLEAARAGQDDEVRILMANGADVNAKDYFSHTPLHLAARNGHLKIVEVLLKAGADVNAKDFAGKTPLHLAANDGHLEIVEVLLKHGADVNAQDIFGKTPADIAADAGHEDIAEVLQKAAGSPTPTPTTPTPTPTTPTPTPTGSDLGAKLLSDLGVKLLWAAARGQDDEVRILLAAGADVNAKDFQGITPLHIAAQSGHLEIVEVLLKAGADVNAKDVTGDTPLHLAAQHGHLVIVEVLLKAGADVNAQDERGWTPADLAADWGHEDIAEVLQKAAGSPTPTPTTPTPTPTTPTPTPTGSDLGKKLLEAARAGQDDEVRILMANGADVNAKDEYGLTPLYLATAHGHLEIVEVLLKNGADVNAVDAIGFTPLHLAAFIGHLEIAEVLLKHGADVNAQDKFGKTAFDISIGNGNEDLAEILQKAAGSPTPTPTTPTPTPTTPTPTPTGSDLGKKLLEAARAGQDDEVRILMANGADVNAKDYFSHTPLHLAARNGHLKIVEVLLKAGADVNAKDFAGKTPLHLAANDGHLEIVEVLLKHGADVNAQDIFGKTPADIAADAGHEDIAEVLQKAA
modifications: His-tag; Protein comprising four designed ankyrin repeat domains
- injected dose remaining 48 hours after intravenous injection: 7%
- terminal half-life, comparison: longer terminal half-life than Protein #26-His

B2: Protein #26-His: SEQ ID NO: 26 with a His-tag (SEQ ID NO: 1) fused to its N terminus (protein)
chain: MRGSHHHHHHGSDLGKKLLEAARAGQDDEVRILMANGADVNAKDYFSHTPLHLAARNGHLKIVEVLLKAGADVNAKDFAGKTPLHLAANDGHLEIVEVLLKHGADVNAQDIFGKTPADIAADAGHEDIAEVLQKAAGGGGSGGGGSGGGGSGGGGSGSDLGAKLLSDLGVKLLWAAARGQDDEVRILLAAGADVNAKDFQGITPLHIAAQSGHLEIVEVLLKAGADVNAKDVTGDTPLHLAAQHGHLVIVEVLLKAGADVNAQDERGWTPADLAADWGHEDIAEVLQKAAGGGGSGGGGSGSDLGKKLLEAARAGQDDEVRILMANGADVNAKDEYGLTPLYLATAHGHLEIVEVLLKNGADVNAVDAIGFTPLHLAAFIGHLEIAEVLLKHGADVNAQDKFGKTAFDISIGNGNEDLAEILQKAAGGGGSGGGGSGGGGSGGGGSGSDLGKKLLEAARAGQDDEVRILMANGADVNAKDYFSHTPLHLAARNGHLKIVEVLLKAGADVNAKDFAGKTPLHLAANDGHLEIVEVLLKHGADVNAQDIFGKTPADIAADAGHEDIAEVLQKAA
modifications: His-tag; Protein comprising four designed ankyrin repeat domains
- injected dose remaining 48 hours after intravenous injection: 5.3%

B3: Protein #30-His: SEQ ID NO: 30 with a His-tag (SEQ ID NO: 1) fused to its N terminus (protein)
chain: MRGSHHHHHHGSDLGKKLLEAARAGQDDEVRILMANGADVNAKDYFSHTPLHLAARNGHLKIVEVLLKAGADVNAKDFAGKTPLHLAANDGHLEIVEVLLKHGADVNAQDIFGKTPADIAADAGHEDIAEVLQKAAGGGGSGGGGSGGGGSGGGGSGSDLGKKLLEAARAGQDDEVRILMANGADVNAKDYFSHTPLHLAARNGHLKIVEVLLKAGADVNAKDFAGKTPLHLAANDGHLEIVEVLLKHGADVNAQDIFGKTPADIAADAGHEDIAEVLQKAAGGGGSGGGGSGGGGSGGGGSGSDLGAKLLSDLGVKLLWAAARGQDDEVRILLAAGADVNAKDFQGITPLHIAAQSGHLEIVEVLLKAGADVNAKDVTGDTPLHLAAQHGHLVIVEVLLKAGADVNAQDERGWTPADLAADWGHEDIAEVLQKAAGGGGSGGGGSGSDLGKKLLEAARAGQDDEVRILMANGADVNAKDEYGLTPLYLATAHGHLEIVEVLLKNGADVNAVDAIGFTPLHLAAFIGHLEIAEVLLKHGADVNAQDKFGKTAFDISIGNGNEDLAEILQKAA
modifications: His-tag; Protein comprising four designed ankyrin repeat domains
- mouse pharmacokinetic profile, two versus one serum albumin binding domain (Protein #30-His compared to Protein #29-His, FIG. 5B): benefit of having two designed ankyrin repeat domains with binding specificity for serum albumin
